The record followed here is the RNAGym collection of RNA variant scans (doi:10.1093/molbev/msab373).

B1: Azoarcus group I ribozyme (parent)
chain: GUGCCUUGCGCCGGGAAACCACGCAAGGGAUGGUGUCAAAUUCGGCGAAACCUAAGCGCCCGCCCGGGCGUAUGGCAACGCCGAGCCAAGCUUCGGCGCCUGCGCCGAUGAAGGUGUAGAGACUAGACGGCACCCACCUAAGGCAAACGCUAUGGUGAAGGCAUAGUCCAGGGAGUGGCGAAAGUCACACAAACCGG

This data set covers variants of B1. Nature of the data set: reverse-splicing fitness (ratio to wild type); higher = more active; in vitro selection; Mg2+ level not given. The gist of the method:
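An in vitro group I ribozyme library with randomized positions was T7-transcribed and gel-purified. In triplicate, 10 pmol RNA in EPPS pH 7.5 was reacted with 50 pmoles of a 30-nt RNA substrate for 1 h at 37 °C across several added MgCl2 levels (1–48 mM), then stopped with EDTA. Products were reverse transcribed from a substrate-complementary primer, PCR-amplified and sequenced (HiSeq 4000). Fitness is a variant's read proportion after selection over that before, normalised to wild type.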
In the case of GUGCCUUGCGCCGGGAAACCACGCAAGGGAUGGUGUCAAAUUCGGCGAAACCUAAGCGCCCGCCCGGGCGUAUGGCAACGCAGAGCCAAGCUUCGGCGCCUGCGCCGAUGAAGGUGUAGAGACUAGACGGCACCCACCUAAGGCGAACGGUAUGGUGAAGGCAUAGUCUAGGGAGUGGCGAAAGUCACACAAACCGG, the reverse-splicing fitness was determined as 0.00998.
The value for GUGCCUUGCGCCGGGAAACCACGCAAGGGAUGGUGUCAAAUUCGGCGAAACCUAAGCGCCCGCCCGGGCGUAUGGCAACGCAGAGCCAAGCUUCGGCGCCUGCGCCGAUGAAGGUGUAGAGACUAGACGGCACCCACCUAAGGCGAACGGUAUGGUGAAGGCAUAGUCGAGGGAGUGGCGAAAGUCACACAAACCGG was 0.00856.
The result for GUGCCUUGCGCCGGGAAACCACGCAAGGGAUGGUGUCAAAUUCGGCGAAACCUAAGCGCCCGCCCGGGCGUAUGGCAACGCAGAGCCAAGCUUCGGCGCCUGCGCCGAUGAAGGUGUAGAGACUAGACGGCACCCACCUAAGGCGAACGGUAUGGUGAAGGCAUAGUCCAGGGAGCGGCGAAAGUCACACAAACCGG reads 0.0513.
The value for GUGCCUUGCGCCGGGAAACCACGCAAGGGAUGGUGUCAAAUUCGGCGAAACCUAAGCGCCCGCCCGGGCGUAUGGCAACGCAGAGCCAAGCUUCGGCGCCUGCGCCGAUGAAGGUGUAGAGACUAGACGGCACCCACCUAAGGCGAACGGUAUGGUGAAGGCAUAGUCCAGGGAGGGGCGAAAGUCACACAAACCGG was 0.0113.
As for GUGCCUUGCGCCGGGAAACCACGCAAGGGAUGGUGUCAAAUUCGGCGAAACCUAAGCGCCCGCCCGGGCGUAUGGCAACGCAGAGCCAAGCUUCGGCGCCUGCGCCGAUGAAGGUGUAGAGACUAGACGGCACCCACCUAAGGCGAACGGUAUGGUGAAGGCAUAGUCCAGGGAGAGGCGAAAGUCACACAAACCGG, the reverse-splicing fitness is 0.0291.
The result for GUGCCUUGCGCCGGGAAACCACGCAAGGGAUGGUGUCAAAUUCGGCGAAACCUAAGCGCCCGCCCGGGCGUAUGGCAACGCAGAGCCAAGCUUCGGCGCCUGCGCCGAUGAAGGUGUAGAGACUAGACGGCACCCACCUAAGGCGAACGGUAUGGUGAAGGCAUAGUCUAGGGAGCGGCGAAAGUCACACAAACCGG reads 0.0136.
As for GUGCCUUGCGCCGGGAAACCACGCAAGGGAUGGUGUCAAAUUCGGCGAAACCUAAGCGCCCGCCCGGGCGUAUGGCAACGCAGAGCCAAGCUUCGGCGCCUGCGCCGAUGAAGGUGUAGAGACUAGACGGCACCCACCUAAGGCGAACGGUAUGGUGAAGGCAUAGUCUAGGGAGGGGCGAAAGUCACACAAACCGG, the reverse-splicing fitness is 0.00762.
As to GUGCCUUGCGCCGGGAAACCACGCAAGGGAUGGUGUCAAAUUCGGCGAAACCUAAGCGCCCGCCCGGGCGUAUGGCAACGCAGAGCCAAGCUUCGGCGCCUGCGCCGAUGAAGGUGUAGAGACUAGACGGCACCCACCUAAGGCGAACGGUAUGGUGAAGGCAUAGUCUAGGGAGAGGCGAAAGUCACACAAACCGG, the reverse-splicing fitness amounted to 0.0117.
In the case of GUGCCUUGCGCCGGGAAACCACGCAAGGGAUGGUGUCAAAUUCGGCGAAACCUAAGCGCCCGCCCGGGCGUAUGGCAACGCAGAGCCAAGCUUCGGCGCCUGCGCCGAUGAAGGUGUAGAGACUAGACGGCACCCACCUAAGGCGAACGUUAUGGUGAAGGCAUAGUCCAGGGAGUGGCGAAAGUCACACAAACCGG, the reverse-splicing fitness was found to be 0.544.
The result for GUGCCUUGCGCCGGGAAACCACGCAAGGGAUGGUGUCAAAUUCGGCGAAACCUAAGCGCCCGCCCGGGCGUAUGGCAACGCAGAGCCAAGCUUCGGCGCCUGCGCCGAUGAAGGUGUAGAGACUAGACGGCACCCACCUAAGGCGAACGGUAUGGUGAAGGCAUAGUCGAGGGAGAGGCGAAAGUCACACAAACCGG reads 0.0112; that for GUGCCUUGCGCCGGGAAACCACGCAAGGGAUGGUGUCAAAUUCGGCGAAACCUAAGCGCCCGCCCGGGCGUAUGGCAACGCAGAGCCAAGCUUCGGCGCCUGCGCCGAUGAAGGUGUAGAGACUAGACGGCACCCACCUAAGGCGAACGGUAUGGUGAAGGCAUAGUCGAGGGAGGGGCGAAAGUCACACAAACCGG, 0.00659; that for GUGCCUUGCGCCGGGAAACCACGCAAGGGAUGGUGUCAAAUUCGGCGAAACCUAAGCGCCCGCCCGGGCGUAUGGCAACGCAGAGCCAAGCUUCGGCGCCUGCGCCGAUGAAGGUGUAGAGACUAGACGGCACCCACCUAAGGCGAACGGUAUGGUGAAGGCAUAGUCGAGGGAGCGGCGAAAGUCACACAAACCGG, 0.0134.
The result for GUGCCUUGCGCCGGGAAACCACGCAAGGGAUGGUGUCAAAUUCGGCGAAACCUAAGCGCCCGCCCGGGCGUAUGGCAACGCAGAGCCAAGCUUCGGCGCCUGCGCCGAUGAAGGUGUAGAGACUAGACGGCACCCACCUAAGGCGAACGUUAUGGUGAAGGCAUAGUCAAGGGAGCGGCGAAAGUCACACAAACCGG reads 0.0166; that for GUGCCUUGCGCCGGGAAACCACGCAAGGGAUGGUGUCAAAUUCGGCGAAACCUAAGCGCCCGCCCGGGCGUAUGGCAACGCAGAGCCAAGCUUCGGCGCCUGCGCCGAUGAAGGUGUAGAGACUAGACGGCACCCACCUAAGGCGAACGUUAUGGUGAAGGCAUAGUCAAGGGAGAGGCGAAAGUCACACAAACCGG, 0.0161.
The value for GUGCCUUGCGCCGGGAAACCACGCAAGGGAUGGUGUCAAAUUCGGCGAAACCUAAGCGCCCGCCCGGGCGUAUGGCAACGCAGAGCCAAGCUUCGGCGCCUGCGCCGAUGAAGGUGUAGAGACUAGACGGCACCCACCUAAGGCGAACGUUAUGGUGAAGGCAUAGUCAAGGGAGUGGCGAAAGUCACACAAACCGG was 0.0115.
